Measurements taken from patent US20250223342A1 (ARGENX, published 2025).
Where two headings read alike, the source gives them in different places.

Key:
human serum albumin [1] = biological target: T1, human serum albumin (human, UniProt P02768 25-609); experiment: SPR (Biacore 8K+, single cycle kinetics), HSA on CM5 chip, citrate buffer pH 5.5
T1 construct: also called HSA

human serum albumin [2] = biological target: T1, human serum albumin; experiment: SPR (Biacore 8K+, single cycle kinetics), HSA on CM5 chip
human serum albumin [3] = biological target: T1, human serum albumin; experiment: SPR (Biacore 8K+, single cycle kinetics), HSA on CM5 chip, HBS-EP+ pH 7.4
human serum albumin [4] = biological target: T1, human serum albumin; experiment: SPR (Biacore 3000), HSA on chip, Fc-ABDEG fusion, ratio of R0
human serum albumin [5] = biological target: T1, human serum albumin; experiment: SPR (Biacore 3000), HSA on chip, Fc-ABDEG fusion, pH 5.5
[6] = biological target: T2, cynomolgus monkey serum albumin (cynomolgus monkey, UniProt A2V9Z4 25-608); experiment: SPR (Biacore 3000), cyno albumin on chip, Fc-ABDEG fusion, ratio of R0
T2 construct: also called cyno albumin; CSA

[7] = biological target: T2, cynomolgus monkey serum albumin; experiment: SPR (Biacore 3000), cyno albumin on chip, Fc-ABDEG fusion, pH 5.5
human serum albumin [8] = biological target: T1, human serum albumin; experiment: SPR (Biacore 3000), HSA on chip, Fc-ABDEG fusion, pH 7.4
[9] = biological target: T2, cynomolgus monkey serum albumin; experiment: SPR (Biacore 3000), cyno albumin on chip, Fc-ABDEG fusion, pH 7.4
human serum albumin [10] = biological target: T1, human serum albumin; experiment: SPR (Biacore 3000), HSA on chip, Fc-ABDEG fusion, ratio of R0; remark: listed apart in the source
human serum albumin [11] = biological target: T1, human serum albumin; experiment: SPR (Biacore 3000), HSA on chip, Fc-ABDEG fusion, pH 7.4; remark: listed apart in the source
human serum albumin [12] = biological target: T1, human serum albumin; experiment: SPR (Biacore 3000), HSA on chip, Fc-ABDEG fusion, pH 5.5; remark: listed apart in the source
human serum albumin [13] = biological target: T1, human serum albumin; experiment: SPR (Biacore), VHH clone, pH 7.4
human serum albumin [14] = biological target: T1, human serum albumin; experiment: SPR (Biacore), off-rate pH 7.4 over pH 5.5
human serum albumin [15] = biological target: T1, human serum albumin; experiment: SPR (Biacore), VHH clone, pH 5.5
mouse serum albumin = biological target: T3, mouse serum albumin (mouse, UniProt P07724 25-608); experiment: species reactivity, screening by ELISA and Biacore
T3 construct: also called MSA; mouse albumin

[16] = biological target: T2, cynomolgus monkey serum albumin; experiment: species reactivity, screening by ELISA and Biacore
[17] = biological target: T4, isolated DII of serum albumin (UniProt P02768 211-403, limits assumed); experiment: DII binder column of the clone screening
T4 construct: domain: DII

“Motavizumab-Fab fragment with Alb23 fused C-terminally to the light chain using a 20GS linker” was tested, and the Kd (human serum albumin [1]) was 12.3 nM, the KD ratio (pH 7.4 / pH 5.5) (human serum albumin [2]) was 5.28 and the Kd (human serum albumin [3]) was 65 nM.

B1: 11C03 parental fused at the C-terminus of Fc-ABDEG (Fc fusion, not shown: a dimerising Fc or GST; small tags and cut ends)
chain: QLQVVESGGGLVQAGGSLRLSCAASERTFVAYPMGWFRQAPEKEREFVAGISWFAGATTDYADSVEGRFTISRDNAKNTAYLQMNNLKPEDTAVYYCAISHQLPGGRPGRDMDSYSYWGHGTQVTVSS
For B1, the “R0 5.5/7.4” value (human serum albumin [4]) was 4, the “R0 pH 5.5” value (human serum albumin [5]) was 177 RU and the “R0 5.5/7.4” value [6] was 6.7. The “R0 pH 5.5” value [7] was 220 RU, the “R0 pH 7.4” value (human serum albumin [8]) was 42.2 RU and the “R0 pH 7.4” value [9] was 33 RU. For the same molecule, the “R0 5.5/7.4” value (human serum albumin [10]) was 4.22, the “R0 pH 7.4” value (human serum albumin [11]) was 57 RU and the “R0 pH 5.5” value (human serum albumin [12]) was 229 RU.

B2: 11C03 (VHH)
VHH: QLQVVESGGGLVQAGGSLRLSCAASERTFVAYPMGWFRQAPEKEREFVAGISWFAGATTDYADSVEGRFTISRDNAKNTAYLQMNNLKPEDTAVYYCAISHQLPGGRPGRDMDSYSYWGHGTQVTVSS
notes: also called 11C03 parental (VHH)
For B2, the koff (human serum albumin [13]) was 0.0039 s⁻¹, the “Ratio Kd” value (human serum albumin [14]) was 7.7 and the Kd (human serum albumin [15]) was 4.12 nM. For the same molecule, the koff (human serum albumin [15]) was 0.00051 s⁻¹ and the binding result (mouse serum albumin) was “binds”.

B3: 11C03-v6 fused at the C-terminus of Fc-ABDEG (Fc fusion, not shown: a dimerising Fc or GST; small tags and cut ends)
chain: QLQVVESGGGLVQAGGSLRLSCAASERTFVAYPMGWFRQAPEKEREFVAGISWFAGATTDYADSVEGRFTISRDNAKNTAYLQMNNLKPEDTAVYYCAISHQLPAGRPGRDMDSYSYWGHGTQVTVSS
For B3, the “R0 pH 5.5” value (human serum albumin [5]) was 39.3 RU, the “R0 pH 7.4” value (human serum albumin [8]) was 12.1 RU and the “R0 5.5/7.4” value (human serum albumin [10]) was 3.26.

B4: Motavizumab-Fab fragment fused with 2H11 C-terminally to the light chain using a 20GS linker (protein, part only; not given: motavizumab Fab and linker, not shown: another chain or arm of the molecule; small tags and cut ends)
VHH: ELQVVESGGGLVQAGGSLRLSCAASGRTFRSNTMGWFRQAPGKEREFVAAITWSGGTTYYADSVKGRFAISGDNAKNTVYLQMNSLKPEDTAVYYCAAEGPKWEPWNGIYHPADFGSWGQGTQVTVSS
B4 was tested, and the Kd (human serum albumin [1]) was 2.85 nM, the KD ratio (pH 7.4 / pH 5.5) (human serum albumin [2]) was 92.6 and the Kd (human serum albumin [3]) was 264 nM.

B5: 9F02 (VHH)
VHH: EVQLVESGGGLVQAGGSLRLSCTASRRAFIGYAMGWFRQAPGKEREFVAAISWFAGDTTDYADSVKGRFTISRDNAKNTVYLQMNGLKPEDTAVYVCAASSARPMSGRSDEYHYWGQGTQVTVSS
With B5 the koff (human serum albumin [13]) was 0.00013 s⁻¹, the “Ratio Kd” value (human serum albumin [14]) was 1.6 and the Kd (human serum albumin [15]) was 0.575 nM. The koff (human serum albumin [15]) was 7.8e-05 s⁻¹, the binding result [16] was “binds” and the binding result (mouse serum albumin) was “binds”.

B6: 9E10 (VHH)
VHH: QLQVVESGGGLVQAGGSLRLSCTTSGRAFIGYAMGWFRQAPGKEREFVAAISWFAGDTTDYANSVKGRFTISRDNAKNTVYLQMNSLKPEDTAVYVCAASSARPLSSRSDEYHYWGQGTQVTVSS
In the case of B6, the koff (human serum albumin [13]) is reported as 0.00412 s⁻¹, the “Ratio Kd” value (human serum albumin [14]) is reported as 1.7 and the Kd (human serum albumin [15]) is reported as 15.4 nM. For the same molecule, the koff (human serum albumin [15]) was 0.00246 s⁻¹, the binding result [16] was “binds” and the binding result (mouse serum albumin) was “binds”.

B7: 12G03 (VHH)
VHH: QVQLVESGGGLVQAGGSLRLSCAASERAFSHSNMAWFRQAPGKEREFVAHIHWRGSTTYLDSVKGRFTISRDNAKNTVYLQMNGLRLEDTAVYYCAADSARRILVTVSTSYDYWGQGTQVTVSS
For B7, the koff (human serum albumin [13]) was 0.00522 s⁻¹, the “Ratio Kd” value (human serum albumin [14]) was 4.1 and the Kd (human serum albumin [15]) was 8.14 nM. For the same molecule, the koff (human serum albumin [15]) was 0.00126 s⁻¹, the binding result [17] was “no binding” and the binding result [16] was “binds”. B7: binds (mouse serum albumin).
